Molecular target: the molecule itself
Test: cross-linking + AUC; PF4 cross-linked with 1 mg/mL EDC (equal v:v) in 15 mM MES pH 8.0, 6 h, ambient temperature, stopped with 1 M Tris pH 7.4; oligomeric species analysed by SDS-PAGE and ultracentrifugation

B1: cross-linked platelet factor 4 (natural protein, human, UniProt P02776 32-101, looked up)
chain: EAEEDGDLQCLCVKTTSQVRPRHITSLEVIKAGPHCPTAQLIATLKNGRKICLDLQAPLYKKIIKKLLES
modifications: chemically cross-linked with 1-ethyl-3-(3-dimethylaminopropyl) carbodiimide (EDC); cross-linked residues not stated
notes: Platelet factor 4 (PF4, CXCL4), human, recombinant; The bought recombinant protein is probably the mature 70-residue chemokine (surmised); also called c-PF4; cross-linked PF4; source: bought: Protein Foundry LLC (recombinant PF4, Human CXCL4); cross-linked with EDC
Question: With B1 as the protein, how does the “stoichiometry N” value read?
Answer: 4
